Reference: US20250145720A1

Experiments:
[1] = biological target: mouse FcRn, biotinylated extracellular domain (FcRnECDHis-B2M-BIO) (mouse) (UniProt Q61559); assay: ELISA on coated mouse FcRn at pH 6.0, apparent affinity
[2] = biological target: human complement component C1q (human) (UniProt P02745); assay: FACS, C1q on antibody-opsonized Raji cells, Exp. 2
[3] = biological target: human complement component C1q (human) (UniProt P02745); assay: cell-based or functional assay
[4] = biological target: human complement component C1q (human) (UniProt P02745); assay: FACS, C1q on antibody-opsonized Raji cells, Exp. 1
[5] = biological target: human complement component C1q (human) (UniProt P02745); assay: FACS, C1q on antibody-opsonized Daudi cells, average
[6] = biological target: human complement component C1q (human) (UniProt P02745); assay: FACS, C1q on antibody-opsonized Daudi cells, ranking table
[7] = biological target: human complement component C1q (human) (UniProt P02745); assay: FACS, C1q on antibody-opsonized Daudi cells, Exp. 2
[8] = biological target: human complement component C1q (human) (UniProt P02745); assay: FACS, C1q on antibody-opsonized Daudi cells, Exp. 1
[9] = biological target: human complement component C1q (human) (UniProt P02745); assay: FACS, C1q on antibody-opsonized Raji cells, Exp. 3
[10] = biological target: human complement component C1q (human) (UniProt P02745); assay: FACS, C1q on antibody-opsonized Daudi cells, Exp. 11
[11] = biological target: human complement component C1q (human) (UniProt P02745); assay: FACS, C1q on antibody-opsonized Daudi cells, Exp. 6
[12] = biological target: human complement component C1q (human) (UniProt P02745); assay: FACS, C1q on antibody-opsonized Daudi cells, Exp. 3
[13] = biological target: human complement component C1q (human) (UniProt P02745); assay: C1q ELISA, antibody coated in dilution series, 3% pooled human serum
[14] = biological target: human complement component C1q (human) (UniProt P02745); assay: FACS, C1q on antibody-opsonized Daudi cells, Exp. 4
[15] = biological target: human complement component C1q (human) (UniProt P02745); assay: FACS, C1q on antibody-opsonized Daudi cells, Exp. 10
[16] = biological target: human complement component C1q (human) (UniProt P02745); assay: FACS, C1q on antibody-opsonized Raji cells, average
[17] = biological target: human complement component C1q (human) (UniProt P02745); assay: FACS, C1q on antibody-opsonized Daudi cells, Exp. 7

Chain of human complement component C1q (human) (P02745 23-245 limits assumed, chain 1 of 3): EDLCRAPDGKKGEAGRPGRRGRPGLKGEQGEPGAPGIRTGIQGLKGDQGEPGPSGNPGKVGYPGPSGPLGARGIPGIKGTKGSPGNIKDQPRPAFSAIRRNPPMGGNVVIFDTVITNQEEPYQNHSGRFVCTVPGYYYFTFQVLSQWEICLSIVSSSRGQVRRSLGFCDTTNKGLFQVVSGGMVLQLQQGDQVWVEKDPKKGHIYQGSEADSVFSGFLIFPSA
Chain of human complement component C1q (human) (P02746 28-253 limits assumed, chain 2 of 3, further chain): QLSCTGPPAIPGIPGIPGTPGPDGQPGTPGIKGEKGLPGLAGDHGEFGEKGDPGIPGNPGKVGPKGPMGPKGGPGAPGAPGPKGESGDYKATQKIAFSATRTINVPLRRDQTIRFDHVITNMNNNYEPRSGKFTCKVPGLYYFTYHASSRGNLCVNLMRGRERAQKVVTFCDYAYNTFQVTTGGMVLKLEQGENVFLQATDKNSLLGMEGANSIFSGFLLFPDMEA
Chain of human complement component C1q (human) (P02747 29-245 limits assumed, chain 3 of 3, further chain): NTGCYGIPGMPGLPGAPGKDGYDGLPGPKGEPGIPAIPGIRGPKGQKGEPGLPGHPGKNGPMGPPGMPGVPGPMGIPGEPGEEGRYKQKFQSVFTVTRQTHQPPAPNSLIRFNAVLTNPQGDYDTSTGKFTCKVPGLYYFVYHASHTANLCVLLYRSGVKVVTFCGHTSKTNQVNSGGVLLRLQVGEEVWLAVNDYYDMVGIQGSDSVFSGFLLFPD
Chain of mouse FcRn, biotinylated extracellular domain (FcRnECDHis-B2M-BIO) (mouse) (Q61559 22-297): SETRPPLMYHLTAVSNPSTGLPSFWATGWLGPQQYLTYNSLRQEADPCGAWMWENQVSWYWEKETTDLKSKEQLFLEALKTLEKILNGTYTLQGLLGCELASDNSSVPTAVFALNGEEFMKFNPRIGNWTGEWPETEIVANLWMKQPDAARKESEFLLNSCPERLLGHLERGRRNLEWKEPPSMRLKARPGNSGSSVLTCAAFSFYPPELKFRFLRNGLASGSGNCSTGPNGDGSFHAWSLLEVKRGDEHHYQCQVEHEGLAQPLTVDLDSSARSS

Row | Substance | EC50 [1] | CH50 (C1q concentration giving 50% lysis), CDC on Raji cells in C1q-depleted serum [3] | EC50 of CDC on Daudi cells, 20% normal human serum [3] | EC50 of CDC on Raji cells, 20% normal human serum [3] | Kd [5] | Kd [6] | other results
1 | IgG1-005-E345Q (antibody) | 0.12 µg/mL |  |  |  |  |  | 
2 | IgG1-7D8-Q311A (antibody) |  | 0.63 µg/mL | 0.42 µg/mL | 1.72 µg/mL | 10.7 nM | 10.7 nM | Kd [2]: 10.1 nM; Kd [4]: 4.1 nM; Kd [7]: 13 nM; Kd [8]: 14.3 nM; Kd [9]: 12.2 nM
3 | IgG1-005-P247G (antibody) | 0.28 µg/mL |  |  |  |  |  | 
4 | IgG1-005-S440Y (antibody) | 0.15 µg/mL |  |  |  |  |  | 
5 | IgG1-7D8-H435R (antibody) |  | 0.24 µg/mL | 0.28 µg/mL | 0.61 µg/mL |  |  | Kd [12]: 2.6 nM; EC50 [13]: 1.24 µg/mL; Kd [7]: 8.7 nM; Kd [14]: 3 nM
6 | IgG1-005-E430H (antibody) | 0.11 µg/mL |  |  |  |  |  | 
7 | IgG1-005-E430T (antibody) | 0.15 µg/mL |  |  |  |  |  | 
8 | IgG1-7D8-H435A (antibody) |  | 0.96 µg/mL | 0.81 µg/mL | 2.22 µg/mL |  |  | Kd [2]: 9.9 nM; Kd [16]: 7.3 nM; Kd [12]: 5 nM; EC50 [13]: 2.27 µg/mL; Kd [4]: 5.4 nM; Kd [7]: 10.9 nM; Kd [8]: 7.8 nM; Kd [14]: 10.9 nM
9 | IgG1-7D8-K322A (antibody) |  | > 30 µg/mL | > 30 µg/mL | > 30 µg/mL |  |  | 
10 | IgG1-005-K439E (antibody) | 0.31 µg/mL |  |  |  |  |  | 
11 | IgG1-7D8-H433A (antibody) |  | > 30 µg/mL | 3.44 µg/mL | 22.6 µg/mL | 118 nM | 118 nM | Kd [2]: 85 nM; Kd [16]: 97.9 nM; Kd [12]: 45.2 nM; EC50 [13]: 3.33 µg/mL; Kd [4]: 125 nM; Kd [7]: 76.1 nM; Kd [8]: 168 nM; Kd [14]: 181 nM; Kd [9]: 84 nM
12 | IgG1-7D8-I253Y (antibody) |  | 16.1 µg/mL | 1.77 µg/mL | 28.9 µg/mL | 41.3 nM | 41.3 nM | Kd [2]: 45.6 nM; Kd [16]: 38.7 nM; Kd [12]: 21.1 nM; EC50 [13]: 2.21 µg/mL; Kd [4]: 24.3 nM; Kd [7]: 37 nM; Kd [8]: 58.5 nM; Kd [14]: 48.7 nM; Kd [9]: 46.2 nM
13 | IgG1-7D8-K439E (antibody) |  | > 30 µg/mL | 2.34 µg/mL | 21.5 µg/mL | 361 nM | 361 nM | Kd [10]: 304 nM; Kd [11]: 418 nM
14 | IgG1-005-E430F (antibody) | 0.11 µg/mL |  |  |  |  |  | 
15 | IgG1-005-S440K (antibody) | 0.11 µg/mL |  |  |  |  |  | 
16 | IgG1-7D8-N434A (antibody) |  | 21.2 µg/mL | 1.77 µg/mL |  | 42.6 nM | 42.6 nM | Kd [2]: 46.7 nM; Kd [16]: 44.9 nM; Kd [12]: 28.3 nM; EC50 [13]: 2.12 µg/mL; Kd [4]: 35.9 nM; Kd [7]: 47.8 nM; Kd [8]: 36.7 nM; Kd [14]: 48.7 nM; Kd [9]: 35.2 nM
17 | IgG1-005-E345N (antibody) | 0.11 µg/mL |  |  |  |  |  | 
18 | IgG1-005 (HuMab 005, wild type) (antibody) | 0.14 µg/mL |  |  |  |  |  | 
19 | IgG1-7D8-I253A (antibody) |  | 11.2 µg/mL | 0.79 µg/mL | 5.55 µg/mL | 21.5 nM | 21.5 nM | Kd [2]: 25.7 nM; Kd [16]: 18.6 nM; Kd [12]: 16.7 nM; EC50 [13]: 2.56 µg/mL; Kd [7]: 20.4 nM; Kd [8]: 33 nM; Kd [14]: 15.7 nM; Kd [9]: 20.1 nM
20 | IgG1-005-E345R (antibody) | 0.09 µg/mL |  |  |  |  |  | 

The next lines start with results.

Row | EC50 [1] | CH50 (C1q concentration giving 50% lysis), CDC on Raji cells in C1q-depleted serum [3] | EC50 of CDC on Daudi cells, 20% normal human serum [3] | EC50 of CDC on Raji cells, 20% normal human serum [3] | Kd [5] | Kd [6] | Substance | other results
21 | 0.13 µg/mL |  |  |  |  |  | IgG1-005-E345Y (antibody) | 
22 |  | 22.5 µg/mL | 2.12 µg/mL | 17.4 µg/mL | 74 nM | 74 nM | IgG1-7D8-G385D (antibody) | Kd [10]: 71 nM; Kd [11]: 77 nM
23 |  | 0.49 µg/mL | 0.48 µg/mL | 1.54 µg/mL |  |  | IgG1-7D8 (HuMab-7D8, wild type) (antibody) | Kd [10]: 13.3 nM; EC50 [13]: 2.05 µg/mL; Kd [15]: 11.8 nM; Kd [4]: 4.8 nM; Kd [8]: 7.7 nM; Kd [9]: 10.9 nM
24 |  | > 30 µg/mL | 3.33 µg/mL | > 30 µg/mL | 157 nM | 157 nM | IgG1-7D8-I253D (antibody) | Kd [2]: 172 nM; EC50 [13]: 3.84 µg/mL; Kd [4]: 70 nM; Kd [7]: 176 nM; Kd [8]: 146 nM; Kd [14]: 205 nM; Kd [9]: 85.2 nM
25 |  | 0.03 µg/mL | 0.04 µg/mL | 0.16 µg/mL | 1.7 nM | 1.7 nM | IgG1-7D8-E345R (antibody) | Kd [15]: 2.7 nM; Kd [17]: 0.17 nM
26 |  | 1.33 µg/mL | 0.48 µg/mL | 1.58 µg/mL |  |  | IgG1-7D8-K439E + IgG1-7D8-S440K mix | Kd [11]: 3.6 nM
27 |  | > 30 µg/mL | 1.78 µg/mL | 19.5 µg/mL | 109 nM | 109 nM | IgG1-7D8-S440K (antibody) | Kd [10]: 48 nM; Kd [11]: 170 nM
28 | 0.13 µg/mL |  |  |  |  |  | IgG1-005-E430G (antibody) | 
29 | 0.14 µg/mL |  |  |  |  |  | IgG1-005-E430S (antibody) | 
30 |  | > 30 µg/mL | 1.88 µg/mL | 16.6 µg/mL | 468 nM | 468 nM | IgG1-7D8-Y436D (antibody) | Kd [10]: 504 nM; Kd [11]: 431 nM
31 | 0.1 µg/mL |  |  |  |  |  | IgG1-005-E345K (antibody) | 
